What was measured:
[1] = target: BcDltA (D-alanyl carrier protein ligase DltA) (Bacillus cereus, UniProt Q81G39); experiment: biochemical
[2] = tested on: C[C@@H](N)C(=O)O; experiment: purified protein; conditions: 5 mM ATP, 5 mM CoA, 10 mM MgCl2, 0.1 M KCl, pH 7.2
Description: pyrophosphate release, pyrophosphatase-coupled malachite green assay on BcDltA (D-alanyl carrier protein ligase DltA)

Sequence of BcDltA (D-alanyl carrier protein ligase DltA) (Q81G39 whole entry): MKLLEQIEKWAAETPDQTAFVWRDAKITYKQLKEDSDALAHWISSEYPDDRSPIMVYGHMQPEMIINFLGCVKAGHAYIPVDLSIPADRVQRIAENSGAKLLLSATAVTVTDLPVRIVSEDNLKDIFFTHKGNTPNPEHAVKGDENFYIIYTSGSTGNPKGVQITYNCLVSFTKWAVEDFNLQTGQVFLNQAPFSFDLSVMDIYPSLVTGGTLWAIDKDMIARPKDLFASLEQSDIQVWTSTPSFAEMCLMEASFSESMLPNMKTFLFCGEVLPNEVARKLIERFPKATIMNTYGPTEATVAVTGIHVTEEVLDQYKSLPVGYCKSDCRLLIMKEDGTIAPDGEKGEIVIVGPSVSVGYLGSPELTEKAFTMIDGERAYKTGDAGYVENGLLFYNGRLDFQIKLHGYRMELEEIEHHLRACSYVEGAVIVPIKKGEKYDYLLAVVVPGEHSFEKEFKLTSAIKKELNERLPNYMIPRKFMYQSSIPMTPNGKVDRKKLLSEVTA

| Compound | Kd [1] [µM] | Km [2] | kcat [2] [s⁻¹] | kcat/Km [2] [M⁻¹ s⁻¹] |
| --- | --- | --- | --- | --- |
| Nc1ncnc2c1ncn2[C@@H]1O[C@H](COP(=O)(O)OP(=O)(O)OP(=O)(O)O)[C@@H](O)[C@H]1O [ATP] | 430 | – | – | – |
| BcDltA (D-alanyl carrier protein ligase DltA) (Bacillus cereus ATCC 14579) | – | 0.03 ± 0.01 × 10^-3 M | 0.182 ± 0.00333 | 6050 ± 1670 |

Reference: article PMC4176424, “Thiolation-enhanced substrate recognition by D-alanyl carrier protein ligase DltA from Bacillus cereus” (F1000Research, 2014)
